Patent US20230057012A1 (SCHOLAR ROCK, published 2023)
Values belong to the binder of their own block, whether it stands above or below them.

Assays:
[1] = target: endogenous LTBP-proTGFβ1 of LN229 cells (human); assay: cell-based or functional assay
[2] = target: T1, murine GARP-proTGFβ1 complex (mouse; human, UniProt G3XA59 18-628; P01137 30-390, limits assumed); assay: ELISA, purified hIgG4 titrated from about 0.002 to 100 nM, readout RLU, panel mGARP-TGFb1
T1 construct: As for m5; also called mGARP-proTGFβ1; LLC
T1 sequence (G3XA59 18-628 limits assumed, chain 1 of 2): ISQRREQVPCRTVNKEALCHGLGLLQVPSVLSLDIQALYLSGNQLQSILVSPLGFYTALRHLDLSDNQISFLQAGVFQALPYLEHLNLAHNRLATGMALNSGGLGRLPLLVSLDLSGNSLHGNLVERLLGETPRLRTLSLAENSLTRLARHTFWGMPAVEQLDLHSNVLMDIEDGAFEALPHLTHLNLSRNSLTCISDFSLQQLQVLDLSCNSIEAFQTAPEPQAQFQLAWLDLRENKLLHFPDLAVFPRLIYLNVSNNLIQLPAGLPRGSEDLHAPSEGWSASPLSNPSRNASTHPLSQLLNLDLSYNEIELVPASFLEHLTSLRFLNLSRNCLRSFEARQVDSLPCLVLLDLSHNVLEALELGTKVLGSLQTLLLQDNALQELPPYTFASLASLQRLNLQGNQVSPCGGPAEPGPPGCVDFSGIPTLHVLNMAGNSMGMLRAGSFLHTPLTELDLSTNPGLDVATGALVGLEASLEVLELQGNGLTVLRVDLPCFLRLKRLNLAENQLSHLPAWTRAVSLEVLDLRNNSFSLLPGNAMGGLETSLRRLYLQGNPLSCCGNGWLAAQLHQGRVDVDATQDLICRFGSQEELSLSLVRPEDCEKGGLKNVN
T1 sequence (P01137 30-390 limits assumed, chain 2 of 2): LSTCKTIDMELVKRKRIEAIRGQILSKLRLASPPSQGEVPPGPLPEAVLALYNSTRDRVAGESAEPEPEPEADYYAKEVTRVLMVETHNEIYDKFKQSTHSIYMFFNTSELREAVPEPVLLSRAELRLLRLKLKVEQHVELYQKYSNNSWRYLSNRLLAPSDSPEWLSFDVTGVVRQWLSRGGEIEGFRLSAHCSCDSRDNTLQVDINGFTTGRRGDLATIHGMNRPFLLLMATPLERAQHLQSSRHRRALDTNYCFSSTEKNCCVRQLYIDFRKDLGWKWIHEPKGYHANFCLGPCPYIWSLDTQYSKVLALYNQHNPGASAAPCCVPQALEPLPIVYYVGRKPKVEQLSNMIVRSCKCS

[3] = target: T2, human LTBP3-proTGFβ1 complex (human, UniProt Q9NS15 44-1303; P01137 30-390, limits assumed); assay: ELISA, purified hIgG4 titrated from about 0.002 to 100 nM, readout RLU, panel hLTBP3-TGFb1
T2 construct: Purified recombinant, biotinylated antigen complex; also called hLTBP3-proTGFβ1; LLC

[4] = target: T3, human GARP-proTGFβ1 complex (human, UniProt Q14392 18-627; P01137 30-390, limits assumed); assay: ELISA, purified hIgG4 titrated from about 0.002 to 100 nM, readout RLU, panel hGARP-TGFb1
T3 construct: Purified recombinant, biotinylated antigen complex; also called hGARP-proTGFβ1; LLC
T3 sequence (Q14392 18-627 limits assumed, chain 1 of 2): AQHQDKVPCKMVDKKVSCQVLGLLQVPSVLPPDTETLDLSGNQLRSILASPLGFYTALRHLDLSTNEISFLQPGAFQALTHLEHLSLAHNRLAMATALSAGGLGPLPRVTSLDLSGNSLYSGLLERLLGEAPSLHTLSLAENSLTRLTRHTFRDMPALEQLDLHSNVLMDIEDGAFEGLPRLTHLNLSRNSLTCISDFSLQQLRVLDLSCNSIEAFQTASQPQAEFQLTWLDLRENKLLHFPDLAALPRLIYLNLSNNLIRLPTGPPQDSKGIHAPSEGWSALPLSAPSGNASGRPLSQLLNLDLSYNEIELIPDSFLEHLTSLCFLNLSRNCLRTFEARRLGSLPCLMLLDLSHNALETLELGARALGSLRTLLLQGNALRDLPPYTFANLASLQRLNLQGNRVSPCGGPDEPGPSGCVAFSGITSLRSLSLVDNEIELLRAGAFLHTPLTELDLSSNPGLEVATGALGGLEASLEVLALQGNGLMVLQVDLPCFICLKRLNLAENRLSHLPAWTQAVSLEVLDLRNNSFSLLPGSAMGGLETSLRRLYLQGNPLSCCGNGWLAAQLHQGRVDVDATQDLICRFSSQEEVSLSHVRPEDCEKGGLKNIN
T3 sequence (P01137 30-390 limits assumed, chain 2 of 2): as the sequence (P01137 30-390 limits assumed, chain 2 of 2) above

[5] = target: T4, murine LTBP3-proTGFβ1 complex (mouse; human, UniProt Q61810 41-1245; P01137 30-390, limits assumed); assay: ELISA, purified hIgG4 titrated from about 0.002 to 100 nM, readout RLU, panel mLTBP3-TGFb1
T4 construct: also called mLTBP3-proTGFβ1; LLC

[6] = target: T5, human LTBP1-proTGFβ1 complex (human, UniProt Q14766 347-1721; P01137 30-390, limits assumed); assay: ELISA, purified hIgG4 titrated from about 0.002 to 100 nM, readout RLU, panel hLTBP1-TGFb1
T5 construct: also called hLTBP1-proTGFβ1; large latent complex (LLC)
T5 sequence (Q14766 347-1721 limits assumed, chain 1 of 2): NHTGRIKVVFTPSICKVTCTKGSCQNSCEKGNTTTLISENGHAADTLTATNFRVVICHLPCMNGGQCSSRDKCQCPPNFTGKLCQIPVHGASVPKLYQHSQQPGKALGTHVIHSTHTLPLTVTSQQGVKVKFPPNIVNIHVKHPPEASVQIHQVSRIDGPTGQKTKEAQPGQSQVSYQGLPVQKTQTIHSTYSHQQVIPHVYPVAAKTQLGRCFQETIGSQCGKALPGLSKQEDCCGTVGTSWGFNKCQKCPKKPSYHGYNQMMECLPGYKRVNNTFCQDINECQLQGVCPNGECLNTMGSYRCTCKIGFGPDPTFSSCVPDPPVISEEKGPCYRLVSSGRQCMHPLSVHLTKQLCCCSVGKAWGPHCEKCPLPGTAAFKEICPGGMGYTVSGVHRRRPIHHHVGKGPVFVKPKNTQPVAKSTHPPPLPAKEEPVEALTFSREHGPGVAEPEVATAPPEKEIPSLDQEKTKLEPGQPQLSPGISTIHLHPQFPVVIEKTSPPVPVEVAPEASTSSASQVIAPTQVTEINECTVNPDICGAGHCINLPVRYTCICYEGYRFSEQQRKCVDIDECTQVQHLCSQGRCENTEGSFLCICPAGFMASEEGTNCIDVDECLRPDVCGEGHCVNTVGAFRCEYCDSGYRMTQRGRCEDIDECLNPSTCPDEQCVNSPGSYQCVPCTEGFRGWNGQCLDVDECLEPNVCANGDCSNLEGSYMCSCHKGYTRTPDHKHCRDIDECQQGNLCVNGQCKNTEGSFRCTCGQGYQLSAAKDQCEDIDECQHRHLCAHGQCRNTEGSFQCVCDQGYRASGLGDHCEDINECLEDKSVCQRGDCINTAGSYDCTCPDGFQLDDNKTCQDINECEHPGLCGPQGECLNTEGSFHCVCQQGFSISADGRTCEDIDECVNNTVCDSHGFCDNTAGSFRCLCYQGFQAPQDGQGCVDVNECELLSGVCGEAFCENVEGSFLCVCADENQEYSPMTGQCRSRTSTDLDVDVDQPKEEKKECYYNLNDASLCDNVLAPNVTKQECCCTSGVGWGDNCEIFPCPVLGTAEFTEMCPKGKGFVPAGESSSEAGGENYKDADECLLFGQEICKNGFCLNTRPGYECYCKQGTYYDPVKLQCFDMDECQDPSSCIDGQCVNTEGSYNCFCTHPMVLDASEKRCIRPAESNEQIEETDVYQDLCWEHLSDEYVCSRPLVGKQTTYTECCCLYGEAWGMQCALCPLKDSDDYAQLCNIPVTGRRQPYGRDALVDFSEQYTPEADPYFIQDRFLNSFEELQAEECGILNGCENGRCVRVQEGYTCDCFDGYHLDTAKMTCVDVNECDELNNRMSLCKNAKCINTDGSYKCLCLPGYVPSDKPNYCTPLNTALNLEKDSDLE
T5 sequence (P01137 30-390 limits assumed, chain 2 of 2): as the sequence (P01137 30-390 limits assumed, chain 2 of 2) above

[7] = target: T6, murine LTBP1-proTGFβ1 complex (mouse; human, UniProt Q8CG19 339-1712; P01137 30-390, limits assumed); assay: ELISA, purified hIgG4 titrated from about 0.002 to 100 nM, readout RLU, panel mLTBP1-TGFb1
T6 construct: also called mLTBP1-proTGFβ1; LLC

[8] = target: T5, human LTBP1-proTGFβ1 complex; assay: SPR (Biacore), binding to Human LTBP1-ProTGFβ1, Fab at 0.625-10 nM
Protocol: (§1) A BIACORE® system was employed to determine the monovalent binding affinity and the kinetic parameters for antigen binding of test antibodies. The binding kinetics were evaluated by surface plasmon resonance using Biacore 8K (GE Healthcare). A Biotin CAP sensor chip was used to capture the biotinylated antigens. […] Multi-cycle kinetics was employed where each analyte concentration was injected in a separate cycle and the sensor chip surface was regenerated after each cycle. All the assays were carried out in freshly prepared 1× HBS-EP+ buffer (10 mM HEPES, 150 mM NaCl, 3 mM EDTA, 0.05% Tween20, pH 7.4). Data for all the analyte concentrations for each interaction were fit globally to a 1:1 binding model to obtain the kinetic parameters. The Sensorgram for 0 nM analyte concentration was used as reference.
Binding kinetics was evaluated by surface plasmon resonance using a BIACORE® 8K (GE) instrument. Biotinylated antigens were captured on a Biotin CAP chip and the Fab fragments of the antibodies were used as analytes. Sensorgrams for Fab binding at variable concentrations (0.6-10 nM) were globally fit to obtain the kinetic parameters.

[9] = target: T1, murine GARP-proTGFβ1 complex; assay: SPR Biacore; Fab
Protocol: (§2) Surface plasmon resonance (SPR) was used to measure binding kinetics using a BIACORE® system. […] Experiments were carried out with eight types of LLCs, namely, hLTBP1-proTGFβ1, mLTBP1-proTGFβ1, hLTBP3-proTGFβ1, mLTBP3-proTGFβ1, hGARP-proTGFβ1, mGARP-proTGFβ1, hLRRC33-proTGFβ1 and mLRRC33-proTGFβ1.
as §1

[10] = target: T6, murine LTBP1-proTGFβ1 complex; assay: SPR Biacore; Fab
Protocol: as §2, §1

[11] = target: T4, murine LTBP3-proTGFβ1 complex; assay: SPR Biacore; Fab
Protocol: as §2, §1

[12] = target: T5, human LTBP1-proTGFβ1 complex; assay: SPR Biacore; Fab
Protocol: as §2, §1

[13] = target: T2, human LTBP3-proTGFβ1 complex; assay: SPR Biacore; Fab
Protocol: as §2, §1

[14] = target: T7, human LRRC33-proTGFβ1 complex (human, UniProt Q86YC3 19-650; P01137 30-390, limits assumed); assay: SPR Biacore; Fab
T7 construct: Purified recombinant, biotinylated antigen complex; also called hLRRC33-proTGFβ1; LLC
T7 sequence (Q86YC3 19-650 limits assumed, chain 1 of 2): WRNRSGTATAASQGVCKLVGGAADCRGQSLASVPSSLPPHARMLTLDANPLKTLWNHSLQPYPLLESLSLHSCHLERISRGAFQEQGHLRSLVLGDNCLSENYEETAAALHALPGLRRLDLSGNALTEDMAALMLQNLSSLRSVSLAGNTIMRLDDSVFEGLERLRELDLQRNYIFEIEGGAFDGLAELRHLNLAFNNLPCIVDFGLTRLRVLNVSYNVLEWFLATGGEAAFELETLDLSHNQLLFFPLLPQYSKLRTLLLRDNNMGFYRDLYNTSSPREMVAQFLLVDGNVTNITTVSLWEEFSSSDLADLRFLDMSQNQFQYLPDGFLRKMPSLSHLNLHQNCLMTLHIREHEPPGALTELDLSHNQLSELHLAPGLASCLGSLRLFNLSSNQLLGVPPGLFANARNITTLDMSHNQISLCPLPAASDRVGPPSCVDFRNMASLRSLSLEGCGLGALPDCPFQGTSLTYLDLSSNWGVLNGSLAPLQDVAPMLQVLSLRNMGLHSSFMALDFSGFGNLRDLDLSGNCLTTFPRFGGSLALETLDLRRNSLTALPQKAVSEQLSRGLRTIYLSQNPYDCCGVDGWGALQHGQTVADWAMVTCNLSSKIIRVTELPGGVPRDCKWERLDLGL
T7 sequence (P01137 30-390 limits assumed, chain 2 of 2): as the sequence (P01137 30-390 limits assumed, chain 2 of 2) above
Protocol: as §2, §1

[15] = target: T8, murine LRRC33-proTGFβ1 complex (mouse; human, UniProt Q8BMT4 20-651, limits assumed); assay: SPR Biacore; Fab
T8 construct: As for m5; also called mLRRC33-proTGFβ1; LLC
T8 sequence (Q8BMT4 20-651 limits assumed, chain 1 of 2): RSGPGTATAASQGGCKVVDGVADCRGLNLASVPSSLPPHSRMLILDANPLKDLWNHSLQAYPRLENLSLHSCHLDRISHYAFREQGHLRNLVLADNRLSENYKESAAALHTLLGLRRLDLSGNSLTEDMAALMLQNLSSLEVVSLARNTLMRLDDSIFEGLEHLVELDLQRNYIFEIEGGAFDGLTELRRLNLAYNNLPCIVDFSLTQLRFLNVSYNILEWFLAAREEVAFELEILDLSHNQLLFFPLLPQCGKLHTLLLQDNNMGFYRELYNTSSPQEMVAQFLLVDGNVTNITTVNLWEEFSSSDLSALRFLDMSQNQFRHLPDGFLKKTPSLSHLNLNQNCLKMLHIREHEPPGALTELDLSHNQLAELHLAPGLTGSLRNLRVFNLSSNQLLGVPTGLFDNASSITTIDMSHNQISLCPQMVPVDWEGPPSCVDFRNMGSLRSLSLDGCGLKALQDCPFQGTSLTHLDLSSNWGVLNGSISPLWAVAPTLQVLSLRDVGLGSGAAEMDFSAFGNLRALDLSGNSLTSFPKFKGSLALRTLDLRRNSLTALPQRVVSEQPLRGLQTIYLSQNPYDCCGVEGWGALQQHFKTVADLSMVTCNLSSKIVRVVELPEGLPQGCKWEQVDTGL
T8 sequence (chain, as listed by the source limits assumed, chain 2 of 2): as the sequence (P01137 30-390 limits assumed, chain 2 of 2) above
Protocol: as §2, §1

[16] = target: T3, human GARP-proTGFβ1 complex; assay: SPR Biacore; Fab
Protocol: as §2, §1

Sequence of endogenous LTBP-proTGFβ1 of LN229 cells (human) (P01137 30-390): as the sequence (P01137 30-390 limits assumed, chain 2 of 2) above

- mAb IC50 (nM); cell-based potency assay [1]: 0.95 nM
- EC50 (read off the curve) [2]: ~0.2 nM
- EC50 (read off the curve) [3]: ~0.2 nM
- EC50 (read off the curve) [4]: ~0.3 nM
- EC50 (read off the curve) [5]: ~0.2 nM
- EC50 (read off the curve) [6]: ~0.3 nM
- EC50 (read off the curve) [7]: ~0.2 nM
B1: Ab46 hIgG4 (antibody, V domains shown)
VH: EVQLLESGGGLVQPGGSLRLSCAASGFTFADYAMTWVRQAPGKGLEWVSAISGSGAATYFADSVKGRFTISRDNSKNTLYLQMNSLRAEDTAVYYCARVSSGHWDYDYWGQGTLVTVSS
VL: DIQLTQSPSSLSASVGDRVTITCRASQSISSYLNWYQQKPGKAPKLLIYAASGLESGVPSRFSGSGSGTDFTLTISSLQPEDFATYYCQQTYGVPLTFGGGTKVEIK
notes: hIgG4 immunoglobulin; also called Ab46 (mAb)

- fAb IC50 (nM); cell-based potency assay [1]: 0.723 nM
- t1/2 [8]: 2.18 h
- Fold difference (affinity relative to Ref) [9]: 69 fold
- Fold difference (affinity relative to Ref) [10]: 123 fold
- Fold difference (affinity relative to Ref) [11]: 91 fold
- Fold difference (affinity relative to Ref) [12]: 134 fold
- Fold difference (affinity relative to Ref) [13]: 72 fold
- Fold difference (affinity relative to Ref) [14]: 118 fold
- Fold difference (affinity relative to Ref) [15]: 95 fold
- Fold difference (affinity relative to Ref) [16]: 53 fold
B2: Ab46 Fab (Fab, V domains shown)
VH: B1 VH
VL: B1 VL
notes: Fab fragment

- Fold difference (affinity relative to Ref) [14]: 81 fold
- Kd [14]: 0.123 nM
- koff [14]: 0.000123 s⁻¹
- kon [14]: 1e+06 M⁻¹ s⁻¹
- Fold difference (affinity relative to Ref) [15]: 74 fold
- Kd [15]: 0.114 nM
- koff [15]: 0.000123 s⁻¹
- kon [15]: 1.08e+06 M⁻¹ s⁻¹
B3: Ab42 Fab (Fab, V domains shown)
VH: QVQLVESGGGVVQPGRSLRLSCAASGFTFRSYVMHWVRQAPGKGLEWVAVISHEGSLKYYADSVKGRFTISRDNSKNTLYLQMNSLRAEDTAVYYCARPRIAARRGGFGYWGQGTLVTVSS
VL: NFMLTQPHSVSESPGKTVTISCTRSSGNIDNNYVQWYQQRPGSSPTTVIYEDNQRPSGVPDRFSGSIDSSSNSASLTISGLKTEDEADYYCQSYDYDTQGVVFGGGTKLTVL
